Laboratory results reported in PMC314469, “Protein Interaction Networks by Proteome Peptide Scanning” (PLoS Biology, 2004).

T1: Boi1 SH3 (BOI1_YEAST), P38041
T1 chain: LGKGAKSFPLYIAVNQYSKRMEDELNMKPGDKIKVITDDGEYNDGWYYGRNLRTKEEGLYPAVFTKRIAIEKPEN

T2: Boi2 SH3 (BOI2_YEAST), P39969
T2 chain: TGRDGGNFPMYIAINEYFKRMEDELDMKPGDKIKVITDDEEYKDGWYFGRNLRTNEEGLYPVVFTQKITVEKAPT

T3: Rvs167 SH3 (RV167_YEAST), P39743
T3 chain: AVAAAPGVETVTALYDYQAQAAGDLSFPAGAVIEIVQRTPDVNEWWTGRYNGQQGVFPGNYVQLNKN

T4: Yfr024 SH3 (LSB3_YEAST), P43603
T4 chain: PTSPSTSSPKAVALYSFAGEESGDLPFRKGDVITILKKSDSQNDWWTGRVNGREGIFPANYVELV

T5: Yhr016c SH3 (YSC84_YEAST), P32793
T5 chain: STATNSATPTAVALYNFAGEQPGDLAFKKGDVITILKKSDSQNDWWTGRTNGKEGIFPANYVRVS

B1: YAR068W 116-129 (peptide)
chain: LSLPRLPNKHHWPL
B2: YDR545W 312-325 (peptide)
chain: LRSPNTPRRLRKTL
B3: YAR003W 101-114 (peptide)
chain: LSKPSKPLKEIRFD
B4: YGR204W 307-320 (peptide)
chain: LQIPPLPLKLLTPV
B5: YPL115C 235-248 (peptide)
chain: LRSPQNPNRMTAVI
B6: YJL187C 191-204 (peptide)
chain: LRIPETPVKKSPLV
B7: YER158C 363-376 (peptide)
chain: LPPPRSPNRPTLSD
B8: YBR279W 17-30 (peptide)
chain: LPVPQLPPKLLVYP
B9: YDL140C 239-252 (peptide)
chain: LPVPPPPVRPSISF
B10: YER141W 449-462 (peptide)
chain: LRKPRAPMRNVIIT
B11: YMR086W 52-65 (peptide)
chain: LRKPSAPKRMSSIS
B12: YPL115C 570-583 (peptide)
chain: LPLPTLPDRQLFQT
B13: YGR154C 67-80 (peptide)
chain: LPAPHRPEKYKERF
B14: YEL042W 325-338 (peptide)
chain: LSSPSLPPKVNATN
B15: YDR109C 605-618 (peptide)
chain: LSTPSAPAKINNYS
B16: YBL016W 218-231 (peptide)
chain: LRRPIFPGRDYRHQ
B17: YKL216W 131-144 (peptide)
chain: LSSPNVPGKPQVAY
B18: YFL036W 1327-1340 (peptide)
chain: LRLPEIPPKGDFDV
B19: YOR181W 341-354 (peptide)
chain: LPAPPPPPRRGPAP
B20: YGL195W 2564-2577 (peptide)
chain: LRDPVIPIKLAAEK
B21: YLR253W 491-504 (peptide)
chain: LQNPLGPERTFLIM
B22: YGR233C 693-706 (peptide)
chain: LPPPIIPLRKYGHN

Biological target: T1, Boi1 SH3 (BOI1_YEAST), P38041
Assay: SPOT array

Binder	normalised SPOT signal, Boehringer light units (BLU); mean over the file's lines of this peptide
B1	197
B2	236
B3	233
B4	113
B5	55.6
B6	66.9
B7	53500
B8	375
B9	37.7
B10	197
B11	119
B12	125
B13	89.9
B14	113
B15	18.3
B16	825
B17	67.9
B18	1.5
B19	2960
B20	200
B21	121
B22	20400

Biological target: T2, Boi2 SH3 (BOI2_YEAST), P39969
Assay: SPOT array

Binder	normalised SPOT signal, Boehringer light units (BLU); mean over the file's lines of this peptide
B1	44.9
B2	322
B3	63
B4	49.8
B5	49
B6	42
B7	48500
B8	57.9
B9	51.2
B10	90.5
B11	77.6
B12	48.9
B13	35.8
B14	22
B15	37.9
B16	234
B17	43.1
B18	78.1
B19	55.6
B20	28.8
B21	32.9
B22	353

Biological target: T3, Rvs167 SH3 (RV167_YEAST), P39743
Assay: SPOT array

Binder	normalised SPOT signal, Boehringer light units (BLU); mean over the file's lines of this peptide
B1	252
B2	2540
B3	82.7
B4	78.2
B5	20.7
B6	1.6
B7	15000
B8	64.4
B9	769
B10	229
B11	276
B12	3860
B13	28.8
B14	34.7
B15	30.6
B16	947
B17	1.5
B18	28.8
B19	5620
B20	2.2
B21	27.6
B22	1930

Biological target: T4, Yfr024 SH3 (LSB3_YEAST), P43603
Assay: SPOT array

Binder	normalised SPOT signal, Boehringer light units (BLU); mean over the file's lines of this peptide
B1	27100
B2	21100
B3	586
B4	1670
B5	1210
B6	164
B7	33900
B8	4360
B9	11400
B10	3330
B11	2940
B12	15100
B13	1230
B14	3210
B15	174
B16	8010
B17	201
B18	322
B19	6280
B20	68.1
B21	197
B22	15900

Biological target: T5, Yhr016c SH3 (YSC84_YEAST), P32793
Assay: SPOT array

Binder	normalised SPOT signal, Boehringer light units (BLU); mean over the file's lines of this peptide
B1	2000
B2	3240
B3	227
B4	195
B5	155
B6	37.4
B7	12200
B8	196
B9	3380
B10	257
B11	270
B12	6800
B13	171
B14	92.2
B15	144
B16	1090
B17	77.3
B18	124
B19	1260
B20	0
B21	49
B22	18400
